Measurements: PMC3903462 (Biochemistry, 2013)

Target: the molecule itself
Test: SEC-MALS

B1: HsaD from Mycobacterium tuberculosis H37Rv (enzyme)
chain: MTATEELTFESTSRFAEVDVDGPLKLHYHEAGVGNDQTVVLLHGGGPGAASWTNFSRNIAVLARHFHVLAVDQPGYGHSDKRAEHGQFNRYAAMALKGLFDQLGLGRVPLVGNSLGGGTAVRFALDYPARAGRLVLMGPGGLSINLFAPDPTEGVKRLSKFSVAPTRENLEAFLRVMVYDKNLITPELVDQRFALASTPESLTATRAMGKSFAGADFEAGMMWREVYRLRQPVLLIWGREDRVNPLDGALVALKTIPRAQLHVFGQCGHWVQVEKFDEFNKLTIEFLGGGR
  stoichiometry N: 4
